The source of these data is patent US20150329642A1 (Genmab, published 2015).

For experiment [1], the target named is T1, human c-Met, membrane-bound on cells (human, UniProt P08581 25-1390).
T1 construct: whole, on cells; A431 cells carry on average 30,000 copies of c-Met per cell (Qifi); also called c-Met expressed on A431 cells; c-Met on A549 cells
Kind of experiment: flow cytometry on A431 cells. As for the experimental part:
(§1) The binding of anti-c-Met antibodies and monovalent forms thereof (also termed “UniBody molecules” herein, see Example 5) to A431 cells expressing membrane-bound c-Met (purchased at ATCC, CRL-1555) was tested using flow cytometry (FACS Canto II, BD Biosciences). […] Binding of anti-c-Met antibodies and UniBody molecules was detected using a Phycoerythrin-conjugated goat-anti-human IgG antibody (Jackson). IgG1-5D5 was used as positive control antibody, and HuMab-KLH was used as isotype control antibody. EC₅₀ values were determined by means of non-linear regression (sigmoidal dose-response with variable slope) using GraphPad Prism V4.03 software (GraphPad Software, San Diego, Calif., USA).
(§2) Also maximum binding levels were unchanged between IgG1's and UniBody molecules. For antibodies 005, 006, 008, 035, 045 and 058, on the other hand, a more than 2-fold […] as well as a decrease in maximum binding level was observed when comparing IgG1 with their UniBody counterpart. This was most likely due to the […] (Kd) of these antibodies (see Example 14).

The target of experiment [2] is T1, human c-Met, membrane-bound on cells. The experiment can be described thus: flow cytometry on A431 cells (PE goat anti-human IgG); top panel. Here is the method: as §1, §2
The target in the next experiment is T2, cMetECDHis (human, UniProt P08581 25-932, limits assumed, biotinylated in the cross-block ELISA of Example 17).
T2 construct: Expressed in HEK-293F cells; also called soluble cMetECDHis; biotinylated cMetECDHis
Kind of experiment: BLI (Octet); antibody captured, cMetECDHis in solution. As for the experimental part: Antibody binding to cMetECDHis was analyzed by means of Bio-Layer Interferometry (BLI) technology on the Octet System (Fortebio, Menlo Park, USA). Anti-human IgG coated biosensors (Fc-specific) were used to capture anti-c-Met antibodies according to the procedure recommended by the manufacturer. cMetECDHis derived from HEK293 cells was loaded on top of the immobilized anti-c-Met antibodies by placing the loaded biosensor into a well containing 10 μg/mL cMetECDHis diluted in 10 times diluted kinetics buffer (Fortebio). The difference in reflection of light (AA, nm) of the biosensor surface due to the binding of cMetECDHis was measured in real time during approximately 10 minutes and was used by the Octet software (V4.0, Fortebio) to calculate the association constant (kₐ [1/M×s]). Next, the loaded biosensor was placed into a well containing only kinetics buffer (10 times diluted in PBS) to determine the dissociation constant (kd [1/s]). Kinetics analysis was performed to determine the affinity (KD [M]) using model 1:1 (langmuir). As a positive control, 0.2 μg/mL 5D5 IgG1 produced in HEK293 cells, was used.
In general terms: In BLI a coated tip is dipped into the sample, and binding shifts an interference pattern.

For experiment [3], the target named is T3, recombinant human c-Met extracellular domain (R&D systems) (human, UniProt P08581 25-932).
T3 construct: extracellular domain; Bought reagent; also called coated extracellular domain of c-Met; recombinant c-Met
Kind of experiment: competition ELISA, residual Europium-HGF signal at 615 nm at the lower plateau of the fit; sheet prints no competing mAb ~66000, no HGF-Europium ~600; lower panel. As for the experimental part: (§3) ELISA wells were coated overnight at 4° C. with 0.5 μg/mL recombinant human c-Met extracellular domain (R&D systems, Minneapolis, USA) diluted in PBS. Next, the ELISA wells were washed with PBST (PBS supplemented with 0.05% Tween-20 [Sigma-Aldrich, Zwijndrecht, The Netherlands]) and blocked for one hour at room temperature (RT) with PBST supplemented with 2% (v/v) chicken serum (Gibco, Paisley, Scotland). […] Mean fluorescence intensity at 615 nm was measured using the EnVision 2101 Multilabel reader (PerkinElmer) applying the following settings: Lance/Delfia dual mirror, emission filter 615, excitation filter 340 nm, delay time 400 μs, window 400 μs, 100 flashes, 2000 μs per cycle and bidirectional row-by-row reading. To determine IC₅₀ values, the binding curves were analyzed with non-linear regression (sigmoidal dose-response with variable slope, top-values constrained to a shared value for all data-sets) using GraphPad Prism V4.03 software (GraphPad Software, San Diego, Calif., USA).
(§4) FIG. 5 depicts representative examples of HGF binding inhibition curves of anti-c-Met antibodies for binding to the extracellular domain of recombinant human c-Met. 5D5 was used as positive control antibody. All anti-c-Met antibodies in the experiment shown were able to compete with Europium^{3±}-conjugated HGF for binding to recombinant c-Met. […] Without adding Europium³⁺-conjugated HGF, roughly ˜600 relative fluorescent units (RFU) were detected, indicating the signal when maximal inhibition is accomplished. When binding of Europium³⁺-conjugated HGF was not inhibited, approximately ˜66,000 RFU were detected.
(In general: In an ELISA, binding on a coated surface is turned into a signal by an enzyme label.)

Experiment [4] addresses T3, recombinant human c-Met extracellular …. Kind of experiment: competition ELISA on coated recombinant c-Met extracellular domain; blocked ligand Europium-conjugated HGF; column headed EC50 on the sheet, called IC50 in paragraph 270; lower panel. Here is the method: as §3, §4
Experiment [5] has as its target T1, human c-Met, membrane-bound on cells. Kind of experiment: cell-based or functional assay.
Experiment [6] shares this target. The experiment can be described thus: flow cytometry on A431 cells (PE goat anti-human IgG); second panel. Here is the method:
as §1, §2
In general terms: A flow cytometer gives signals particle by particle.

A value given as a limit tells only on which side of the number the result lay.

As usually defined, the EC50 is the concentration at which the effect is half-maximal. Low values mean an effect from little substance, high ones a need for much substance. In general, Kd refers to the equilibrium constant for the complex coming apart. Low values mean a tighter complex, high ones a looser complex. A word on the koff: it is a measure of how fast the partners let go of each other. A low value points to a long-lived complex. One may read the kon as the second-order rate constant of association. A low value points to slow association. A word on the IC50: it is the concentration that gives 50% inhibition.

B1: Uni-1016-058-TE (other)
VH: EVQLVESGGGLVKPGGSLKLSCAASGFTFSDYYMYWVRQTPEKRLEWVATISDDGSYTYYPDSVKGRFTISRDNAKNNLYLQMSSLKSEDTAMYYCAREGLYYYGSGSYYNQDYWGQGTLVTVSS
VL: AIQLTQSPSSLSASVGDRVTITCRASQGLSSALAWYRQKPGKAPKLLIYDASSLESGVPSRFSGSGSGTDFTLTISSLQPEDFATYYCQQFTSYPQITFGQGTRLEIK
notes: also called UniBody molecule of antibody 058
In the case of B1, the “fold change of EC50, UniBody molecule against IgG1 of the identical clone” value (from here on “fold change of EC50, UniBody molecule”) in experiment [1] was above 2 fold. In experiment [2], this molecule returned an EC50 of 0.67 nM.

B2: IgG4-058 (antibody, V domains shown)
VH: EVQLVESGGGLVKPGGSLKLSCAASGFTFSDYYMYWVRQTPEKRLEWVATISDDGSYTYYPDSVKGRFTISRDNAKNNLYLQMSSLKSEDTAMYYCAREGLYYYGSGSYYNQDYWGQGTLVTVSS
VL: AIQLTQSPSSLSASVGDRVTITCRASQGLSSALAWYRQKPGKAPKLLIYDASSLESGVPSRFSGSGSGTDFTLTISSLQPEDFATYYCQQFTSYPQITFGQGTRLEIK
notes: IgG4 format of clone 058; also called IgG4-1016-058
In experiment [2], B2 showed an EC50 of 0.276 nM.

B3: anti-c-Met HuMab 096 (IgG1) (antibody, V domains shown)
VH: EVQLVQSGAEVKKPGESLKISCKGSGYSFTSYWIGWVRQMPGKGLEWMGIIYPGDSDTRYSPSFQGQVTISADKSISTAYLQWSSLKASDTAMYYCARQEITGDFDYWGQGTLVTVSS
VL: AIQLTQSPSSLSASVGDRVTITCRASQGISSALAWYQQKPGKAPNLLIYAASSLESGVPSRFSGSGSGTDFTLTISSLQPEDFATYYCQQFNSYPLTFGGGTKVEIK
notes: also called TH1016-096; PC1016-096
In the experiment with cMetECDHis, B3 yielded a Kd of 2.55 nM, a koff of 0.0005 s⁻¹ and a kon of 196000 M⁻¹ s⁻¹. Moreover, in experiment [3], the Bottom was 24800 RFU. The IC50 in experiment [4] was 0.0152 µg/mL.

B4: Uni-1016-022-TE (other)
VH: QVQLVESGGGVVQPGRSLRLSCAASGFTFSSYAMHWVRQAPGKGLEWVAVISYDGSNKYYADSVKGRFTISRDNSKNTLYLQMNSLRAEDTAVYYCARELLWFGELWGYFDLWGRGTLVTVSS
VL: DIQMTQSPSSVSASVGDRVTITCRASQGISSWLAWYQHKPGKAPKLLIYAASSLQSGVPSRFSGSGSGTDFTLTISSLQPEDFATYYCQEASSFTWTFGQGTKVEIK
notes: also called UniBody molecule of antibody 022
As for B4, in experiment [5], the “percentage inhibition of viable KP4 cells (Alamarblue)” value worked out at 57%. Moreover, the “fold change of EC50, UniBody molecule” value in experiment [1] was below 2 fold. The molecule also displayed an EC50 in experiment [6] of 1.66 nM.

B5: Uni-1016-006 (other)
VH: QVQLVQSGAEVKKPGSSVKVSCKASGGTFSSFGIGWVRQAPGQGLEWMGRIFPILGTANYAQMFQGRVTITADKSTSTAYMELTSLRSEDTAVYYCARDVGYDSADAFDIWGQGTMVTVSS
VL: DIQMTQSPSSLSASVGDRVTITCRASQGISSWLAWYQQKPEKAPKSLIYAASSLQSGVPSRFSGSGSGTDFTLTISSLQPEDFATYYCQQYNSYPPTFGQGTKVEIK
notes: also called UniBody molecule of antibody 006
In the case of B5, in experiment [1], the “fold change of EC50, UniBody molecule” value was above 2 fold. Further, the figures for the EC50 in experiment [2] and in experiment [6] were 0.323 nM and 13.9 nM, respectively.
